Data reported in US20060148057A1, “Thioredoxin mutants and uses thereof” (priority 2002, published 2006).
Residue numbers refer to the chain shown, from its start. Names may count otherwise. Each block holds one molecule with its values, some of them ahead of it.

What was measured:
[1] = tested on: ASK1; test: Trx-induced ASK1 ubiquitination and degradation in transfected BAEC (Western blot, IP/anti-Ub); format: cell-based, Bovine; conditions: for ASK1 poly-ubiquitination / endogenous ASK1 protein level: BAEC transfected with Trx construct vs control vector; for endogenous ASK1 protein level: Western blot anti-ASK1
Method: Transfection Transfection of EC was performed by Lipofectamine2000 according to manufacturer's protocol (Gibco). Cells were cultured at 90% confluence in 6-well plates and were transfected with total 4 μg plasmid constructs as indicated. Cells were harvested at 36-48 h post-transfection and cell lysates were used for protein assays.
Immunoprecipitation and immunoblotting EC after various treatments were washed twice with cold PBS and lysed in 1.5 ml of cold lysis buffer (50 mM Tris-HC, pH 7.6, 150 mM NaCl, 0.1% Triton X-100, 0.75% Brij 96, 10 μg/ml aprotinin, 10 μg/ml leupeptin, 2 mM PMSF, 1 mM EDTA) for 20 min on ice. Protein concentrations were determined with a Bio-Rad kit. For immunoprecipitation to analyze protein interaction in vivo, 400 μg of cell lysate supematant were incubated with 5 μg of the first protein-specific antiserum (e.g. anti-Trx from Medical & Biological Laboratory) for 2 h with 50 μl of GammaBind plus Sepharose. Immune complexes were collected after each immunoprecipitation by centrifugation at 14,000× g for 10 min followed by 4 washes with lysis buffer. The immune complexes were subjected to Western blot with the second protein (e.g., ASK1)-specific antibody (Santa Cruz Biotech, Santa Cruz, Calif.). The chemiluminescence was detected using an ECL kit according to the instructions of the manufacturer (Amersham Life Science, Arlington Heights, Ill.). For Flag-tagged and HA-tagged proteins, anti-Flag M2 antibody (Sigma) and anti-HA antibody (Roche Diagnostics) were used, respectively.
Trx induces ASK1 ubiquitination and degradation in EC. To determine if Trx affects ASK1 protein stability, BAEC were transfected with Trx-expressing plasmid or a control vector (VC) with Lipofactamine2000. Transfection efficiency was determined by transfection of a GFP construct under a fluorescence microscope and usually reached 90% in BAEC and 10% in HUVEC. The high transfection efficiency in BAEC allowed us to examine effects of transgene on endogenous ASK1. Endogenous ASK1 was determined by Western blot with anti-ASK1. […] The high molecular bands are usually ubiquitination of target proteins for degradation (Laney J D et al. Substrate targeting in the ubiquitin system. Cell 97:427-30 (1999)). […] The ubiquitination of ASK1 was also confirmed by co-expression of ASK1 and HA-tag Ub (Treier et al. Ubiquitin-dependent c-Jun degradation in vivo is mediated by the delta domain. Cell 78:787-98 (1994)).

[2] = tested on: JNK; test: ASK1-induced JNK activation in BAEC, in vitro kinase assay with GST-c-Jun; format: cell-based, Bovine; conditions: co-expression with ASK1 1:1, 24 h post-transfection
Method: J Immunol. 159:3508-18 (1997)) using GST-MKK4 and GST-c-Jun (1-80) fusion protein as a substrate, respectively. Briefly, total 400 μg cell lysates were immunoprecipitated with 5 μg of antibody against ASK1 or JNK1 (Santa Cruz). The immunoprecipitates were mixed with 10 μg GST-MKK4 or GST-c-Jun (1-80) suspended in the kinase buffer (20 mM Hepes, pH 7.6, 20 mM MgCl2, 25 mM β-glycerophosphate, 100 μM sodium orthovanadate, 2 mM DTT, 20 μM ATP) containing 1 μl (10 μCi) of [γ-32P] ATP. The kinase assay was performed at 25° C. for 30 min. The reaction was terminated by the addition of Laemmli sample buffer and the phosphorylated GST-MKK4 or GST-c-Jun (1-80) was visualized by autoradiography.
Trx-C32S and Trx-C35S (but not Trx-WT) inhibits ASK1-mediated EC apoptosis induced by TNF. To determine the biological consequence of Trx-induced ASK1 ubiquitination/degradation, the effects of Trx on ASK1-induced apoptosis were examined. ASK1-induced activation of JNK and caspase 3 has been implicated in cell d e a t h (Hatai T et al. Execution of apoptosis signal-regulating kinase 1 (ASK1) induced apoptosis by the mitochondria-dependent caspase activation. J Biol Chem.275:26576-81 (2000); Tournier C et al. Requirement of JNK for stress-induced activation of the cytochrome c- mediated death pathway. Science. 288:870-4 (2000)). First, the effects of Trx on JNK activation induced by ASK1 were examined. BAEC were co-transfected with ASK1 and Trx expression constructs as indicated, and JNK activity was measured by an in vitro kinase assay using GST-c-Jun as a substrate. […] Co-expression of Trx-WT, Trx-C32S and Trx-C35S (but not Trx-CS) inhibited ASK1-induced JNK activity (FIG. 6A top panel). Western blot with anti-Flag indicated equal amounts of Trx proteins were expressed (FIG. 6A bottom panel). Similar results were obtained in human EC (HUVEC).

ASK1-induced JNK activity [2]: inhibited
B1: thioredoxin (protein)
chain: MVKQIESKTAFQEALDAAGDKLVVVDFSATWCGPCKMIKPFFHSLSEKYSNVIFLEVDVDDCQDVASECEVKCMPTFQFFKKGQKVGEFSGANKEKLEATINELV
modifications: Flag tag or GST fusion
notes: Flag-tagged or GST fusion
ubiquitination and degradation of ASK1-ΔN ([1]; BAEC co-transfected with ASK1-ΔN (lacks N-terminal Trx-binding domain)): did not induce ubiquitination and degradation
ASK1 poly-ubiquitination [1]: increased ASK1 poly-ubiquitination
endogenous ASK1 protein level [1]: decrease in ASK1 protein
endogenous ASK1 protein level ([1]; listed as Trx): decreased protein level of ASK1
ASK1 poly-ubiquitination ([1]; listed as Trx): significantly increased ASK1 ubiquitination

ASK1-induced JNK activity [2]: inhibited
B2: Trx-C32S: C32S single mutant of Trx at the catalytic site, SEQ ID NO:2 (protein)
chain: B1 chain with C32S
ASK1 poly-ubiquitination [1]: increased ASK1 poly-ubiquitination
endogenous ASK1 protein level [1]: decrease in ASK1 protein

ASK1-induced JNK activity [2]: inhibited
B3: Trx-C35S: C35S single mutant of Trx at the catalytic site, SEQ ID NO:3 (protein)
chain: B1 chain with C35S
ASK1 poly-ubiquitination [1]: increased ASK1 poly-ubiquitination
endogenous ASK1 protein level [1]: decrease in ASK1 protein
